{
  "source": "paper PMC4726114",
  "about": "“DSF Guided Refolding As A Novel Method Of Protein Production” (Scientific Reports, 2016)",
  "target": "the molecule itself",
  "experiment": "SEC; analytical size-exclusion chromatography of refolded irisin; apparent molecular weight 28 kDa",
  "data": [
    {"protein": "human irisin (FNDC5 residues 32-143) (natural protein, UniProt Q8NAU1 80-191, looked up, irisin, human FNDC5 residues 32-143) DSPSAPVNVTVRHLKANSAVVSWDVLEDEVVIGFAISQQKKDVRMLRFIQEVNTTTRSCALWDLEEDTEYIVHVQAISIQGQSPASEPVLFKTPREAEKMASKNKDEVTMKE", "values": [
      {"measurement": "stoichiometry N", "value": 2}
    ]}
  ]
}
